Laboratory results: PMC2115537

Target: F-actin (rabbit skeletal muscle actin filaments) (rabbit) (UniProt P68135)
Experiment: co-sedimentation

Substance | initial Kd (bivalent cooperativity model) | Kd
29-kD NH2-terminal fragment of synapsin I (domain or fragment) | 168 µM | 
40-kD NH2-terminal/middle fragment of synapsin I (domain or fragment) |  | 1.3 µM
dephosphorylated 51/54-kD middle/tail fragment of synapsin I (domain or fragment) |  | 0.6 µM
phosphorylated 51/54-kD middle/tail fragment of synapsin I (domain or fragment) |  | 1.7 µM
